Reference: the Human Domainome abundance scans (Beltran et al. 2025)
± gives the uncertainty stated by the source.

B1: E3 ubiquitin-protein ligase NEDD4-like, residues 539 to 589; numbered along this chain, Q96PU5 (parent)
chain: KTSLNPNDLGPLPPGWEERIHLDGRTFYIDHNSKITQWEDPRLQNPAITGP

Variants of: B1
Experiment: abundance fitness (aPCA) (normalised: wild type 0, dead -1); higher = more abundant; growth selection in yeast, the domain comes from the species named
Conditions: Homo sapiens

Abundance fitness of substitutions, site by site:
E17: C -0.457 ± 0.047 | I -0.432 ± 0.11 | H -0.157 ± 0.12 | V -0.477 ± 0.065 | M -0.821 ± 0.08 | A -0.705 ± 0.051 | R -0.746 ± 0.046 | D -0.606 ± 0.064
R25: G -0.265 ± 0.046 | C -0.393 ± 0.042 | F -0.568 ± 0.044 | I -0.757 ± 0.043 | A -0.301 ± 0.047 | M -0.48 ± 0.048 | H -0.382 ± 0.047 | N -0.164 ± 0.043 | Q -0.187 ± 0.063
T36: L -0.558 ± 0.06 | M -0.208 ± 0.068 | N -0.469 ± 0.16 | E -0.119 ± 0.049
E18: F -0.736 ± 0.14 | T -0.27 ± 0.049 | P -0.48 ± 0.048 | A -0.071 ± 0.042 | K -0.274 ± 0.089 | L -0.802 ± 0.087 | C -0.252 ± 0.053 | G -0.503 ± 0.06
D40: A -0.528 ± 0.052 | M -0.639 ± 0.11 | H -0.16 ± 0.054 | Y -0.53 ± 0.045 | I -0.574 ± 0.13
P11: T -0.127 ± 0.074 | F -0.426 ± 0.059 | Y -0.601 ± 0.18 | C -0.178 ± 0.056 | I -0.322 ± 0.061 | W -0.613 ± 0.082 | D -0.025 ± 0.083 | V -0.221 ± 0.044
K34: Q 0.076 ± 0.092 | A -0.176 ± 0.071 | R -0.119 ± 0.042 | Y -0.39 ± 0.091 | P -0.857 ± 0.063
K1: E -0.473 ± 0.48 | G -1.01 ± 0.27 | N -0.041 ± 0.12 | S -0.19 ± 0.068
L9: V -0.347 ± 0.32
S33: Q -0.188 ± 0.098 | L -0.188 ± 0.053 | I -0.42 ± 0.061 | D -0.267 ± 0.077 | N -0.001 ± 0.075 | E -0.067 ± 0.065 | W -0.802 ± 0.083
L43: Y -0.192 ± 0.1 | F -0.104 ± 0.087 | C -0.11 ± 0.078 | W -0.333 ± 0.073 | Q -0.144 ± 0.091 | T -0.069 ± 0.066
I20: F -0.246 ± 0.092 | A -0.069 ± 0.048 | R -0.006 ± 0.065 | K 0.209 ± 0.075
N5: W -0.538 ± 0.067 | C -0.04 ± 0.08 | R -0.293 ± 0.042 | M 0.01 ± 0.087 | E 0.019 ± 0.051
D23: F -1.12 ± 0.16 | A -0.779 ± 0.079 | N -0.064 ± 0.065 | Y -0.715 ± 0.054 | E -0.584 ± 0.085 | V -0.876 ± 0.055 | T -0.031 ± 0.073 | P -0.445 ± 0.069 | Q -0.252 ± 0.089 | M -0.5 ± 0.056 | K -0.333 ± 0.088
N7: F -0.11 ± 0.09 | K -0.063 ± 0.098 | A -0.01 ± 0.058 | R -0.041 ± 0.042 | E 0.001 ± 0.085 | V -0.114 ± 0.059
D30: K -0.369 ± 0.089 | I -0.87 ± 0.082 | E -0.24 ± 0.075 | R -0.553 ± 0.045 | M -0.753 ± 0.091
I35: S -0.079 ± 0.06 | C 0.002 ± 0.064 | R 0.048 ± 0.042 | V -0.163 ± 0.058 | Q 0.029 ± 0.05
G50: A 0.012 ± 0.067 | R -0.18 ± 0.055 | E 0.223 ± 0.14 | D 0.029 ± 0.076 | W -0.143 ± 0.1 | K 0.305 ± 0.45
N45: H -0.068 ± 0.063 | A -0.028 ± 0.074 | K 0.029 ± 0.047 | W -0.331 ± 0.064 | I -0.099 ± 0.088 | M -0.163 ± 0.083 | Q -0.102 ± 0.063 | V -0.106 ± 0.058 | R 0.003 ± 0.059 | D -0.213 ± 0.076
P46: A -0.06 ± 0.048 | G 0.01 ± 0.053 | K 0.028 ± 0.075 | E -0.39 ± 0.091 | T -0.051 ± 0.076 | M 0.084 ± 0.11 | L 0.161 ± 0.065
W38: N -0.059 ± 0.048 | E 0.068 ± 0.056 | A -0.014 ± 0.044 | Y -0.041 ± 0.047 | P -0.223 ± 0.054 | L -0.173 ± 0.041
L4: Q -0.024 ± 0.081 | D -0.108 ± 0.073 | T -0.303 ± 0.071 | G -0.12 ± 0.043 | R -0.241 ± 0.047 | C -0.252 ± 0.056 | Y -0.105 ± 0.1 | I -0.136 ± 0.1 | K 0.116 ± 0.066
L12: T -0.427 ± 0.072 | V -0.568 ± 0.048 | D -0.736 ± 0.14 | P -0.62 ± 0.12 | S -0.695 ± 0.063 | N -0.534 ± 0.11
D8: P -0.218 ± 0.057 | I -0.189 ± 0.051 | R -0.034 ± 0.053 | C 0.033 ± 0.083 | S -0.147 ± 0.047 | W -0.466 ± 0.053 | F -0.321 ± 0.092 | A -0.138 ± 0.057 | H -0.194 ± 0.069 | M -0.307 ± 0.088 | N 0.013 ± 0.069
T2: L -0.158 ± 0.054 | F 0.31 ± 0.09 | A -0.223 ± 0.051 | Y -0.001 ± 0.069 | S -0.023 ± 0.046 | V -0.344 ± 0.058
P14: D 0.023 ± 0.084 | L -0.204 ± 0.046 | A 0.008 ± 0.066 | V -0.122 ± 0.056 | W -0.433 ± 0.1
